Data taken from patent publication US20090324606A1 (published 2009).
Substitutions are numbered along the chain they refer to.

T1: botulinum neurotoxin serotype B (BoNT/B) (UniProt P10844 2-1291)
T1 sequence: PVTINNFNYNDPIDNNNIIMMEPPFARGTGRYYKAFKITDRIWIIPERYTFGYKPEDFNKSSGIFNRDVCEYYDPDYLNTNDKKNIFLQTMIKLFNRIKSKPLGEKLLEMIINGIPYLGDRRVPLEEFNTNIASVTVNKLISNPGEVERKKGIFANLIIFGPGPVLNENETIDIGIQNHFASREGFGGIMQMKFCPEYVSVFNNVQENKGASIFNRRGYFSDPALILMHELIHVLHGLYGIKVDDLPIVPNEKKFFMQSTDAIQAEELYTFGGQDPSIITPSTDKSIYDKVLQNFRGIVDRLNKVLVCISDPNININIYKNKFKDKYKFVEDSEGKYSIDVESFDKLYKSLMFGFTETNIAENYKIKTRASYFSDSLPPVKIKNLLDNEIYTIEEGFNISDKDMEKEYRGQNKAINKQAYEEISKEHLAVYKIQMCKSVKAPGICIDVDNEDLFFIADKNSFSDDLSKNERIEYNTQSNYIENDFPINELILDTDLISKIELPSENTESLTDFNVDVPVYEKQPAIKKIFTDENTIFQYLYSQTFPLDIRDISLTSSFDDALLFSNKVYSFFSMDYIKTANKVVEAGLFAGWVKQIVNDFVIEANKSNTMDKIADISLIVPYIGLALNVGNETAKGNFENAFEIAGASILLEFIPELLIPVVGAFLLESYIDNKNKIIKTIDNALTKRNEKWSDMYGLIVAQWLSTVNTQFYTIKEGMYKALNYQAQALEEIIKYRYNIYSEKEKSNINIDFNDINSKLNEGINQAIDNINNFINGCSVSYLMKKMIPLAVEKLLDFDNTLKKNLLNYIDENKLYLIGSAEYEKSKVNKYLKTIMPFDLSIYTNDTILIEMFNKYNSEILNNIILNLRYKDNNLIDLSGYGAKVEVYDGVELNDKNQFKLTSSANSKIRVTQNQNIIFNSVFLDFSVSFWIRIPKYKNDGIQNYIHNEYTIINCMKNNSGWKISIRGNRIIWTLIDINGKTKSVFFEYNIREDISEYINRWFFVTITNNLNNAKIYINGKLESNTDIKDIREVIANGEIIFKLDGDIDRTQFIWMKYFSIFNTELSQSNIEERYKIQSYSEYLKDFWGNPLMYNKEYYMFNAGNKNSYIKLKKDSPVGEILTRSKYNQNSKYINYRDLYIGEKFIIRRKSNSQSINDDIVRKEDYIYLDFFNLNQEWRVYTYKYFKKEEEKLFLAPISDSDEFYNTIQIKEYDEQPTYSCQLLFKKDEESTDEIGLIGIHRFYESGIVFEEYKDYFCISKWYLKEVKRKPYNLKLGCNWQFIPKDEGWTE

T2: botulinum neurotoxin serotype E (BoNT/E) (UniProt Q00496 2-1251)
T2 sequence: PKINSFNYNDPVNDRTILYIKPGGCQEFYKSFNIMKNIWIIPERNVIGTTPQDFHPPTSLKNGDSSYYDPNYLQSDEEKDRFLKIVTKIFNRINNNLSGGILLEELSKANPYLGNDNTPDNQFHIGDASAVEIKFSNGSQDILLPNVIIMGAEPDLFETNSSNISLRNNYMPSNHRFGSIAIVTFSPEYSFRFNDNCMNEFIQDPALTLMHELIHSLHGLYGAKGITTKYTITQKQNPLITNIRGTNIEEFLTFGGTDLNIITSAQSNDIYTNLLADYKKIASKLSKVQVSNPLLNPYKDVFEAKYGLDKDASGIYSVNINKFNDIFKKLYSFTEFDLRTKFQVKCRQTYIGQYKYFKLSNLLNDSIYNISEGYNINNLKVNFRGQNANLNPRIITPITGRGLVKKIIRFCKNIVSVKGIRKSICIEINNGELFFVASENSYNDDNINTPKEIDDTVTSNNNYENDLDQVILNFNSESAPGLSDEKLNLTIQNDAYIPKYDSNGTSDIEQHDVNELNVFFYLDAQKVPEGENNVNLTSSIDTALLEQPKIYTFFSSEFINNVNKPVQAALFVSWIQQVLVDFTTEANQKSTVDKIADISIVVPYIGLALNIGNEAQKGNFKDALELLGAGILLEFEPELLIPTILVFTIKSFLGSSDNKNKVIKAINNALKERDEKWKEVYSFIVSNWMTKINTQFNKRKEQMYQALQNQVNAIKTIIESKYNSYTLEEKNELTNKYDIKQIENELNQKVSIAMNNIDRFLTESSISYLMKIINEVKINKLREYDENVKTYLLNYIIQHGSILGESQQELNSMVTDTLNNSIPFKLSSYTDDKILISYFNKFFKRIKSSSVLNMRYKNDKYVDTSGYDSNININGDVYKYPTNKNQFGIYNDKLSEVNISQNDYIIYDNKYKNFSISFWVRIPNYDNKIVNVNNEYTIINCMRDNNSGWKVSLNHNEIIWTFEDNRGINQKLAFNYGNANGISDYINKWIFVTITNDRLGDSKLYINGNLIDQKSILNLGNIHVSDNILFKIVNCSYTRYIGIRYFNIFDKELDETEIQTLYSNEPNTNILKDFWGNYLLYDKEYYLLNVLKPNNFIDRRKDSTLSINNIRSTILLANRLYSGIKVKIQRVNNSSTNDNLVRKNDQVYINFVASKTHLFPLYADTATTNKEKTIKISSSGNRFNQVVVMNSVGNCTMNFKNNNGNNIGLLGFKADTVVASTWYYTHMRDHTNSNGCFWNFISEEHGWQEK

T3: botulinum neurotoxin serotype C (BoNT/C) (UniProt P18640 2-1291)
T3 sequence: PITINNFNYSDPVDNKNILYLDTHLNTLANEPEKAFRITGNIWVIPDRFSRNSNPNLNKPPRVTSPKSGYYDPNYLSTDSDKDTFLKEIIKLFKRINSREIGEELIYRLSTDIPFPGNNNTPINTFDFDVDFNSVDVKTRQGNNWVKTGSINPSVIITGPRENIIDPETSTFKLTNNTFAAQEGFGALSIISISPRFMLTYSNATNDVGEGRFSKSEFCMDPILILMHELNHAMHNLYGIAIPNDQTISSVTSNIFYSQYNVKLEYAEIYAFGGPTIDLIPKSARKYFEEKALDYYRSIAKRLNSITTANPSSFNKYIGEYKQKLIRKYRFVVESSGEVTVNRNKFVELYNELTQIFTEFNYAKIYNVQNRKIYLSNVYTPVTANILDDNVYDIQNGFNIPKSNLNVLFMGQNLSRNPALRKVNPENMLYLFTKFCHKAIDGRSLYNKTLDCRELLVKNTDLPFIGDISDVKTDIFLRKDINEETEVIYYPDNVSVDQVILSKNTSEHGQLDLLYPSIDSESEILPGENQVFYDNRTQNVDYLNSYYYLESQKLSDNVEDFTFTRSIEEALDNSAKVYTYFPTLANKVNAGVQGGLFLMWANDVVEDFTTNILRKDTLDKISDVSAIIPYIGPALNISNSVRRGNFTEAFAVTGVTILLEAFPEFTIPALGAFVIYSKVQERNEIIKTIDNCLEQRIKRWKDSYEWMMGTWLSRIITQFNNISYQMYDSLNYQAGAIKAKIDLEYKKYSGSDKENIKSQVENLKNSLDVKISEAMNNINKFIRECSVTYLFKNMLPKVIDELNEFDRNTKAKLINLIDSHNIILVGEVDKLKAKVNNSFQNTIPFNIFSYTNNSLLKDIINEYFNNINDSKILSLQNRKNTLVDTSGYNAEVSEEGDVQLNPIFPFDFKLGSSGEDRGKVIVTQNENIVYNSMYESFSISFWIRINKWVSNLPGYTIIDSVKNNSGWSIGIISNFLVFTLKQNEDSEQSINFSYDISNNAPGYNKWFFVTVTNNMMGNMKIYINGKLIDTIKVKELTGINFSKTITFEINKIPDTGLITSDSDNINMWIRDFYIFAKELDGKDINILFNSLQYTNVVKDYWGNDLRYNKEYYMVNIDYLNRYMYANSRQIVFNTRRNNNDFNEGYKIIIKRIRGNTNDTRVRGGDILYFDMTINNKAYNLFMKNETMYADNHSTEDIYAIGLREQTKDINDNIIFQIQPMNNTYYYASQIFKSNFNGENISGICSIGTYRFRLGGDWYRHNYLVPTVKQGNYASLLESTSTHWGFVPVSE

B1: AR1 (affinity improved HuC25) (antibody, V domains shown)
VH: QVQLQESGGGLVQPGGSLRLSCAASGFTFSDYYMYWVRQAPGKGLEWVATISDGGSYTYYPDSVKGRFTISRDNSKNTLYLQMNSLRAEDTAIYYCSRYRYDDAMDYWGQGTLVTVSS
VL: EIVLTQSPATLSLSPGERATISCRASESVDSYGHSFMQWYQQKPGQAPRLLIYRASNLEPGIPARFSGSGSGTDFTLTISSLEPEDFAVYYCQQGNEVPFTFGQGTKVEIKR
B2: WR1(V) (HuC25 derivative) (antibody, V domains shown)
VH: B1 VH with F29S, Y32H, I70V
VL: B1 VL
B3: WR1(T) (HuC25 derivative) (antibody, V domains shown)
VH: B1 VH with F29S, Y32H, I70T
VL: B1 VL
B4: Humanized C25 (HuC25) (antibody, V domains shown)
VH: B1 VH with I93M
VL: B1 VL with G95S, V98D
B5: 3D12 (wild type, as tested in Table 12) (antibody, V domains shown)
VH: QVQLVQSGGGVVHPGRSLKLSCAGSGFTFSDYDMHWVRQAPGKGLEWVAVMWFDGTEKYSAESVKGRFTISRDNSKNTLFLQMNSLRADDTAVYYCAREPDWLLWGDRGALDVWGQGTTVTVSS
VL: DIVMTQSPSTLSASVGDRVTITCRASQSISSWLAWYQQKPGKAPKLLMYEASSLESGVPSRFSGSGSGTEFTLTISSLQPDDFAAYYCQHYNTYPYTFGQGTKLEIKR
B6: 3D12.3-8 (antibody, V domains shown)
VH: B5 VH with M51I
VL: B5 VL with E50G, E55G, Q79H
B7: 3D12.3-10 (antibody, V domains shown)
VH: B5 VH with L45F, W102R
VL: B5 VL with E55G, S56R, N92S
B8: 3D12.3-1 (RAZ1) (antibody, V domains shown)
VH: B5 VH
VL: B5 VL with R24W, W32R, S52T, E55G, N92D
B9: AR2 (affinity improved HuC25) (antibody, V domains shown)
VH: B1 VH with Y32H, I70T
VL: B1 VL
B10: scFv 3D12 (human, immune library) (scFv, V domains shown)
VH: B5 VH
VL: B5 VL

Target: T4, Honey (A2) toxin (UniProt Q45894 2-1296)
Experiment: not given

T4 sequence (Q45894 2-1296): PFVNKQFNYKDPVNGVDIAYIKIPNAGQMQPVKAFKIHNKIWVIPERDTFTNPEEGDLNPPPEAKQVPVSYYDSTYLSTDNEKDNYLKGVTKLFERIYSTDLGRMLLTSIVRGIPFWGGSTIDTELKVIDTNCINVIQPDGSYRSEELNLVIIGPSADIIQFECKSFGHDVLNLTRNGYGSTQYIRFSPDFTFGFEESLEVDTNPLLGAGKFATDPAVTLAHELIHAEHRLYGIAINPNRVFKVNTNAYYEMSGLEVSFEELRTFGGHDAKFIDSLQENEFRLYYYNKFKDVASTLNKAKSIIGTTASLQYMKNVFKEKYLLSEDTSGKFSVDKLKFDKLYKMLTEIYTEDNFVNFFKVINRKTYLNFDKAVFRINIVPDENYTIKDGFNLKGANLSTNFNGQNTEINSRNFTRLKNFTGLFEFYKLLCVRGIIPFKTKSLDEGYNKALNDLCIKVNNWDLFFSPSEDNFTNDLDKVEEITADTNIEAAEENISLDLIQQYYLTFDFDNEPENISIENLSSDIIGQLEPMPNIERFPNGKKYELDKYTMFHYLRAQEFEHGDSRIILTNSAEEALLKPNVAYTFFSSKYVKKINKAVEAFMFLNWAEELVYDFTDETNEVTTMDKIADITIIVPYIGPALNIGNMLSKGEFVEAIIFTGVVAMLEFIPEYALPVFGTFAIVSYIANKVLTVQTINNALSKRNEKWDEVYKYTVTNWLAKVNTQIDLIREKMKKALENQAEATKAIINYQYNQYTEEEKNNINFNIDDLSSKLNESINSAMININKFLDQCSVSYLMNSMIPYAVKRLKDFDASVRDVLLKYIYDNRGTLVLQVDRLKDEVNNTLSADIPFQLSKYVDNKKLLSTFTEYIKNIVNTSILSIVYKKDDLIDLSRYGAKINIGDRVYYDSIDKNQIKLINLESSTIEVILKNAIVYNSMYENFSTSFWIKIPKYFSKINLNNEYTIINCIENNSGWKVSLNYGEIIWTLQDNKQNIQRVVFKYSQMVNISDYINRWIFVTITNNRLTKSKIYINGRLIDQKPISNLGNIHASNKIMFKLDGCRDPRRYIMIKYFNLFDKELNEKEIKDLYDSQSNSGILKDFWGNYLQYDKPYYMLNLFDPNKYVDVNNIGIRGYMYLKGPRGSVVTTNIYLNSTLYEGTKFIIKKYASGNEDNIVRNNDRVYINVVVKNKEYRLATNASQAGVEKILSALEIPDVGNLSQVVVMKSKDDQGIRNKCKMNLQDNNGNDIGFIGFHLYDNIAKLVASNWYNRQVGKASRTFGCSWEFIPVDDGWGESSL

| Binder | Kd |
| --- | --- |
| B1 | 100 nM |
| B2 | 9 nM |
| B3 | 3.7 nM |
| B4 | 250 nM |
| B5 | 2.2 nM |
| B6 | 0.067 nM |
| B7 | 0.081 nM |
| B8 | 0.07 nM |

Target: T5, Hall (A1) toxin (UniProt P0DPI0 2-1296)
Experiment: not given

| Binder | Kd |
| --- | --- |
| B9 | 0.047 nM |
| B1 | 0.2 nM |
| B2 | 0.45 nM |
| B3 | 0.31 nM |
| B4 | 1.24 nM |
| B5 | 0.94 nM |
| B6 | 0.021 nM |
| B7 | 0.028 nM |
| B8 | 0.017 nM |

Target: T1, botulinum neurotoxin serotype B (BoNT/B)
Experiment: ELISA, antigen coated at 10 µg/ml

| Binder | binding result |
| --- | --- |
| B10 | no binding |

Target: T2, botulinum neurotoxin serotype E (BoNT/E)
Experiment: ELISA, antigen coated at 10 µg/ml

| Binder | binding result |
| --- | --- |
| B10 | no binding |

Target: T3, botulinum neurotoxin serotype C (BoNT/C)
Experiment: ELISA, antigen coated at 10 µg/ml

| Binder | binding result |
| --- | --- |
| B10 | no binding |

Target: BoNT/A HN, recombinant translocation domain of botulinum neurotoxin serotype A (Clostridium botulinum, UniProt P0DPI0 449-870)
Experiment: ELISA, antigen coated at 10 µg/ml

| Binder | binding result |
| --- | --- |
| B10 | no binding |

Target: T4, Honey (A2) toxin
Experiment: not given
Remark: another data set of the same source

| Binder | fold tighter binding than wild type 3D12 |
| --- | --- |
| B6 | > 10 fold |
| B7 | > 10 fold |
| B8 | > 10 fold |

Target: T5, Hall (A1) toxin
Experiment: not given
Remark: another data set of the same source

| Binder | fold tighter binding than wild type 3D12 |
| --- | --- |
| B6 | > 10 fold |
| B7 | > 10 fold |
| B8 | > 10 fold |
